# Results as given in the DeepSol protein solubility set.
# Assay: soluble on expression in E. coli; label from the status in PepcDB or PDB records
row,Sequence,soluble on expression in E. coli
1,MTQPAIQLTEYQRKWIEDKSRFKISLKARQTGFSFAVSLEVVLDAVERRTTWVLLSRGERQSKELMEKVAMHARAIGVACEELETTFKIDDKDIKQLEVRFPNGSKVIGLPANPDTARGFSGNVVLDEFAFHADSRKIWTALYPTITRGYKIRVISTPNGKSGKFYDLWMDNTGTWSKHFVDIYMAKEQGLDIDIDELRKGCESEDDWLQEFCCEFIDENGALLPYELITPCETDEATFTLPEDFTPQGDLTLGVDIGRKRDLTVMWVLEYTGTLYWTRAIHILEKQKFSVQREQLFTYLSMPRMRRACIDATGIGMQLAEEAVEAFGSKVEAVEFTGPVKQELAITQRRVFEDRAVRIPIDRVLRNDLHSVQKITTAAGNIRYAAERSEHGHADRFWALALALHAAINNPFVPLETKVARHSTMRRAMEGYG,not soluble
2,AKQQKHFVLVHGGCLGAWIWYKLKPLLESAGHKVTAVDLSAAGINPRRLDEIHTFRDYSEPLMEVMASIPPDEKVVLLGHSFGGMSLGLAMETYPEKISVAVFMSAMMPDPNHSLTYPFEKYNEKCPADMMLDSQFSTYGNPENPGMSMILGPQFMALKMFQNCSVEDLELAKMLTRPGSLFFQDLAKAKKFSTERYGSVKRAYIFCNEDKSFPVEFQKWFVESVGADKVKEIKEADAMGMLSQPREVCKCLLDISDS,soluble
3,AHHHHHHGSERAFIEWYPRGYGVAFKIKKKIYEKLSKYQKIEVYETEGFGRLLALDGTVQLVTLGERSYHEPLVHPAMLAHPKPKRVLVIGGGDGGTVREVLQHDVDEVIMVEIDEDVIMVSKDLIKIDNGLLEAMLNGKHEKAKLTIGDGFEFIKNNRGFDVIIADSTDPVGPAKVLFSEEFYRYVYDALNNPGIYVTQAGSVYLFTDELISAYKEMKKVFDRVYYYSFPVIGYASPWAFLVGVKGDIDFTKIDRERAKKLQLEYYDPLMHETLFQMPKYIRETLQRL,soluble
4,MDPKFLVVEIDSKERALQLVQVMLENGFARFMLLDDLSRHPTLDRIQREEPRISRDELRETASSPVTFETRHSPYPVHEQKVLFPSFSQVSNSMVTSTGIRQEASSVGVGPIEDDDIVEEEEEEDIRLTSKPCVKRRYDHHAEEQEYRDQLMSLLSGEPEIVPIGVNSNDEPSGSNSDSAAKKAKSVGDYHECQLCGVRVKTPRSGRWNLQMHVIALHCVGRQYKCKQCDYLDYRKSTMRKHTVSQHGSDIPPHNITDNIMKAEWHAAMIKCFPEFAHRTGFLN,not soluble
5,MVDPPGNDDDHGDLDALDFSAAHTNEASPLDALDDYAPVQTDDAEGDLDALHALTERDEEPELELFTVTNPQGSVSVSTLMDGRIQHVELTDKATSMSEAQLADEIFVIADLARQKARASQYTFMVENIGELTDEDAEGSALLREFVGMTLNLPTPEEAAAAEAEVFATRYDVDYTSRYKADD,soluble
6,MGSDKIHHHHHHMNPGIEKYEIRFDFDLKDFTYTSHERIHLAGDWKDIKLDAVRLSVDKVTCNGQPMRFETGQDTVTVKGSFHDKDVIDIDFHAKVSDTLMGLYLSRTKEGTMITTQFESNGARMAFPCVDHPAYKAVFAITVVIDKDYDAISNMPPKRIEVSERKIVEFQDTPKMSTYLLYIGVGKFKYATDKYRDIDLILVSLKDIKSKYPLEIARKSIEFYESYFGIPYALPKMHLISVPEFGAGAMENWGAITFREVALMATENSGSIMKQNAAITIAHEIAHQWFGDLVTMKWWNDLWLNESFATFMSYKTVDSFSKQWDVFADFIRSETGGALRSDSLKNTHPIEVDVKDPDEISQIFDEISYGKGASILRMIEDYAGYEEFRKGISKYLNDHRYGNAEGSDLWTAIEDVSGKPVKRVMEYWIKNPGYPVVSVVKSGNKFRLTQEQFFLDGTRGQGKWPIPLTVMTKSGKKAMLMEESAEIEDMVKVNVNSSGFYRVSYDGESFETVMKNYSKLSNLDRWGLISDLYAFLISGRVSVDDYLARIKGFFEDSDHLIVEEIASQLTGLYLLKPDSNRIRETAASYLSRQVVALGDKQKGEDDKISKIRGIVTQDLAMVDDHFASDLARKFSTLAEDPDLALAKSIAAAKAYGISELASAADKYTDDEIRVRIIAAMGWCSPSDLKSVFELIDKGTIRKQDMLYVFSNMPANPKGRDFFFSNIDRIVALMEHAFEGTGYTSRILETAIPYLGLARYEDVKKKAEQIRKPSYNVGINKGLETLEIVRKLYNKL,not soluble
